{"source": "patent US7662583B2", "about": "“Bioreactor containing cells expressing glycosyltransferase nucleic acids isolatable from Arabidopsis” (The University of York, priority 2003, dated 2010)", "molecules": {"B1": {"name": "UGT73B3: Arabidopsis recombinant glycosyltransferase (protein, UniProt Q8W491 1-481, looked up)", "UDP-glycosyltransferase 73B3": "MSSDPHRKLHVVFFPFMAYGHMIPTLDMAKLFSSRGAKSTILTTPLNSKIFQKPIERFKNLNPSFEIDIQIFDFPCVDLGLPEGCENVDFFTSNNNDDRQYLTLKFFKSTRFFKDQLEKLLETTRPDCLIADMFFPWATEAAEKFNVPRLVFHGTGYFSLCSEYCIRVHNPQNIVASRYEPFVIPDLPGNIVITQEQIADRDEESEMGKFMIEVKESDVKSSGVIVNSFYELEPDYADFYKSVVLKRAWHIGPLSVYNRGFEEKAERGKKASINEVECLKWLDSKKPDSVIYISFGSVACFKNEQLFEIAAGLETSGANFIWVVRKNIGIEKEEWLPEGFEERVKGKGMIIRGWAPQVLILDHQATCGFVTHCGWNSLLEGVAAGLPMVTWPVAAEQFYNEKLVTQVLRTGVSVGAKKNVRTTGDFISREKVVKAVREVLVGEEADERRERAKKLAEMAKAAVEGGSSFNDLNSFIEEFTS"}}, "key": {"[1]": {"experiment": "Solubility of quercetin under buffer conditions used", "assay_type": "physicochemical", "conditions": "buffer conditions used in the fermenter", "description": "In order to explore the potential of the whole-cell biocatalysts for large-scale production of glucosides in the absence of added UDP-glucose, transformed bacterial cells were cultured in a fermenter. This process enabled conditions to be controlled tightly throughout the production cycle and a direct comparison to be made of the efficiency of conversion of whole-cell UGT biocatalysis in a simple culture flask and an optimised fermenter system. UGT73B3 was chosen for the analysis, since preliminary experiments (Table 2) had shown formation of a single product, the 3-O-glucoside, at levels of 8.96 μg/ml following 24 h incubation. […] The Figure also illustrates the final level of glucoside was much higher than the soluble aglycone at time 0 h."}, "[2]": {"experiment": "Whole-cell bioreactor assay in fermentor system", "assay_type": "cell-based, E. coli", "description": "A 6 L glass autoclavable fermentor system (Applikon Biotechnology Ltd.) was used for large-scale analysis of UGT whole-cell biocatalysts. E. coli BL21 overnight culture (40 ml) expressing UGT was transferred into the fermentor system containing 2 L of LB medium previously equilibrated at 30° C., pH 7.4. The dissolved O2 level was maintained at 95% for 1 h and was decreased to 60% throughout the remaining process. When the culture reached an optical density at 0.2, the temperature was lowered to 20° C. 0.1 mM of isopropyl-1-thio-β-D-galactopyranoside and 2 g of quercetin were added after the bacterial culture reached an optical density at 0.6. Samples were harvested at intervals and the bacterial cells were removed by centrifugation. The resulting supernatant fractions (culture medium) were analysed with HPLC.\nIn order to explore the potential of the whole-cell biocatalysts for large-scale production of glucosides in the absence of added UDP-glucose, transformed bacterial cells were cultured in a fermenter. This process enabled conditions to be controlled tightly throughout the production cycle and a direct comparison to be made of the efficiency of conversion of whole-cell UGT biocatalysis in a simple culture flask and an optimised fermenter system. […]"}, "[3]": {"experiment": "UGT enzyme reaction with quercetin (recombinant UGTs, HPLC)", "assay_type": "biochemical, Arabidopsis", "conditions": "0.5 mM quercetin, 5 mM UDP-glucose, 30° C.", "how_it_was_run": "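Recombinant Arabidopsis UGTs (2 μg) incubated with 0.5 mM quercetin and 5 mM UDP-glucose in 100 mM Tris-HCl pH 7.0 at 30 °C for 1 h. Quercetin glucosides separated from aglycone by reverse-phase C18 HPLC (acetonitrile gradient, 0.1% TFA), detected at 370 nm.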"}, "[4]": {"experiment": "Whole-cell biocatalyst assay, E. coli expressing UGT in culture medium", "assay_type": "cell-based", "conditions": "E. coli, 2x YT medium, 0.1 mM IPTG, 0.1 mM quercetin, 24 h, no added UDP-glucose", "description": "FIG. 14 Whole-cell biocatalyst assay using UGT71C1. E. coli cells expressing recombinant were used in the biocatalyst assay. After incubation with 0.1 mM quercetin and 0.1 mM IPTG, cells were collected by centrifugation, extracted with 80% methanol and both the cell extracts (pellet) and culture medium (supernatant) were analysed using HPLC. (A) Changes in the combined amounts of aglycone/glucoside over a time-course of 0-48 h. (B) Changes in the level of different glucosides and aglycone in the culture medium over the same time-course.\nUsing the foundation established in the preceding example, we went on to investigate the potential of E. coli expressing plant UGTs as whole-cell biocatalysts to synthesise glucosides of quercetin. In the first instance, we used E. coli grown in 75 ml of standard culture medium. […] Table 2 describes results in which 7 different UGTs are expressed in E. coli and the identity and quantity of different glucosides recovered in the medium were analysed by HPLC. […] There was considerable variation in the level of different glucosides synthesised by the cells, although even under these non-optimised conditions, each of the four monoglucosides and two di-O-glucosides could be formed."}}}
{"molecule": "O=c1c(O)c(-c2ccc(O)c(O)c2)oc2cc(O)cc(O)c12", "note": "[Quercetin, quercetin]", "values": [{"measurement": "solubility", "setting": "[1]", "value": "relatively insoluble"}]}
{"molecule": "B1", "values": [{"measurement": "yield of 3-O-glucoside, fermenter versus culture flask", "setting": "[2]; 99.3 μg/ml at 20 h versus 8.96 μg/ml at 24 h", "value": 10, "unit": "fold"}, {"measurement": "yield of 3-O-glucoside in the culture", "setting": "[2]; fermenter system, 20 h", "value": 99.3, "unit": "µg/mL"}, {"measurement": "Specific activity (nkat/mg protein) 3-O-glc", "setting": "[3]; quercetin glucosylated at 3-OH", "value": 1.57, "unit": "nkat/mg protein"}, {"measurement": "Specific activity (nkat/mg protein) 3′-O-glc", "setting": "[3]; quercetin glucosylated at 3′-OH", "value": "— (Activity lower than 0.02 nkat/mg protein has been considered as trace activity and is not shown in the Table.)"}, {"measurement": "Specific activity (nkat/mg protein) 4′-O-glc", "setting": "[3]; quercetin glucosylated at 4′-OH", "value": "— (Activity lower than 0.02 nkat/mg protein has been considered as trace activity and is not shown in the Table.)"}, {"measurement": "Specific activity (nkat/mg protein) 7-O-glc", "setting": "[3]; quercetin glucosylated at 7-OH", "value": "— (Activity lower than 0.02 nkat/mg protein has been considered as trace activity and is not shown in the Table.)"}, {"measurement": "Culture medium (μg/ml in supernatant) 3-O-glc", "setting": "[4]", "value": 8.96, "unit": "µg/mL"}]}
